According to patent publication US20220025008A1 (FAPON BIOTECH, published 2022):

T1: Recombinant NT antigen (N-terminal pro-brain natriuretic peptide, NT-proBNP) (human, UniProt P16860 27-102)
T1 construct: domain: N-terminal pro-brain natriuretic peptide (NT-proBNP); also called recombinant NT protein; N-terminal pro-B-type natriuretic peptide
T1 sequence (looked up): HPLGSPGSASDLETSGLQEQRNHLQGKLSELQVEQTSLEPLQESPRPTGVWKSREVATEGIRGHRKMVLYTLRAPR

B1: Mutation 1-7 (antibody)
heavy: QVRLQESGPSQVKPAQTLSLTCAISGFSVTTYYLDWVRHTPGKPPEWLAQMTKDGNAVHQPTVRSRLSITRDTSKSQVFLKLTGVTTEDTAVYYCVRGIIDFGPGLLVTVSSASTTPPKVYPLTSCCGDTSSSIVTLGCLVSSYMPEPVTVTWNSGALTSGVHTFPAILQSSGLYSLSSVVTVPASTSGAQTFICNVAHPASSTKVDKRVEPGCPDPCKHCRCPPPELPGGPSVFIFPPKPKDTLTISGTPEVTCVVVDVGQDDPEVQFSWFVDNVEVRTARTKPREEQFNSTFRVVSALPIQHQDWTGGKEFKCKVHNEGLPAPIVRTISRTKGQAREPQVYVLAPPQEELSKSTLSVTCLVTGFYPDYIAVEWQKNGQPESEDKYGTTTSQLDADGSYFLYSRLRVDKNSWQEGDTYACVVMHEALHNHYTQKSISKPPGK
light: QAVLTQPSSVSRSLGQTVSITCSGSSDNVGFGDYLNWFQLIPGSAPKTLIFGASSRLRGVPDRFSGSRSGNTATLTINSLQAEDEADYYCGSGNSRNYVFGSGTRLTVLSQPKSAPSVTLFPPSKEELDTNKATVVCLISDFYPGSVNVVWKADGSTINQNVKTTQASKQSNSKYAASSYLTLTGSEWKSKSSYTCEVTHEGSTVTKTVKPSECS
B2: Mutation 1-13 (antibody)
heavy: QVRLQESGPSQVKPAQTLSLTCAISGFSLTTYYLDWVRHTPGKPPEWLAQMTKDGNAVHNPTIRSRLSITRDTSKSQVFLKLTGVTTEDTAVYYCVRGIIDFGPGLLVTVSSASTTPPKVYPLTSCCGDTSSSIVTLGCLVSSYMPEPVTVTWNSGALTSGVHTFPAILQSSGLYSLSSVVTVPASTSGAQTFICNVAHPASSTKVDKRVEPGCPDPCKHCRCPPPELPGGPSVFIFPPKPKDTLTISGTPEVTCVVVDVGQDDPEVQFSWFVDNVEVRTARTKPREEQFNSTFRVVSALPIQHQDWTGGKEFKCKVHNEGLPAPIVRTISRTKGQAREPQVYVLAPPQEELSKSTLSVTCLVTGFYPDYIAVEWQKNGQPESEDKYGTTTSQLDADGSYFLYSRLRVDKNSWQEGDTYACVVMHEALHNHYTQKSISKPPGK
light: QAVLTQPSSVSRSLGQTVSITCSGSSDQVGFGDYLNWFQLIPGSAPKTLIFGAYSRLRGVPDRFSGSRSGNTATLTINSLQAEDEADYYCGSPNSRNYVFGSGTRLTVLSQPKSAPSVTLFPPSKEELDTNKATVVCLISDFYPGSVNVVWKADGSTINQNVKTTQASKQSNSKYAASSYLTLTGSEWKSKSSYTCEVTHEGSTVTKTVKPSECS
B3: Mutation 1-10 (antibody, V domains shown)
VH: QVRLQESGPSQVKPAQTLSLTCAISGFSITTYYLDWVRHTPGKPPEWLAQMTKDGNAVHNPTIRSRLSITRDTSKSQVFLKLTGVTTEDTAVYYCVRGVIDWGPGLLVTVSS
VL: QAVLTQPSSVSRSLGQTVSITCSGSSDQVGFGDYLNWFQLIPGSAPKTLIFGASSRLRGVPDRFSGSRSGNTATLTINSLQAEDEADYYCGSANSRNYVFGSGTRLTVLS
B4: Mutation 1-15 (antibody)
heavy: QVRLQESGPSQVKPAQTLSLTCAISGFSVTTYYIDWVRHTPGKPPEWLAQMTKDGNAVHNPTLRSRLSITRDTSKSQVFLKLTGVTTEDTAVYYCVRGLIDFGPGLLVTVSSASTTPPKVYPLTSCCGDTSSSIVTLGCLVSSYMPEPVTVTWNSGALTSGVHTFPAILQSSGLYSLSSVVTVPASTSGAQTFICNVAHPASSTKVDKRVEPGCPDPCKHCRCPPPELPGGPSVFIFPPKPKDTLTISGTPEVTCVVVDVGQDDPEVQFSWFVDNVEVRTARTKPREEQFNSTFRVVSALPIQHQDWTGGKEFKCKVHNEGLPAPIVRTISRTKGQAREPQVYVLAPPQEELSKSTLSVTCLVTGFYPDYIAVEWQKNGQPESEDKYGTTTSQLDADGSYFLYSRLRVDKNSWQEGDTYACVVMHEALHNHYTQKSISKPPGK
light: QAVLTQPSSVSRSLGQTVSITCSGSSDNVGFGDYVNWFQLIPGSAPKTLIFGATSRIRGVPDRFSGSRSGNTATLTINSLQAEDEADYYCGSANSRNYVFGSGTRLTVLSQPKSAPSVTLFPPSKEELDTNKATVVCLISDFYPGSVNVVWKADGSTINQNVKTTQASKQSNSKYAASSYLTLTGSEWKSKSSYTCEVTHEGSTVTKTVKPSECS

Target: T1, Recombinant NT antigen (N-terminal …)
Test: indirect ELISA, KD calculated from half-max OD at 4 coating concentrations
Method: Recombinant NT antigen was diluted with coating solution to 1 μg/ml a microplate overnight at 4° C.; which was washed twice with washing solution and patted dry on the next day; with addition of blocking solution (20% BSA+80% PBS) at 120 μL per well at 37° C. for 1 h and patted dry; added the diluted NT monoclonal antibody, 100 μL/well at 37° C. for 30 min (partial supernatant for 1 h); washed 5 times with washing solution and patted dry; added rabbit anti-goat IgG-HRP […] per well at 37° C. for 30 min; washed 5 times with washing solution and patted dry; added color developing solution A (50 μL/well), added color developing solution B (50 μL/well) for 10 min; added stop solution, 50 μL/well; followed by reading the OD value at 450 nm (reference 630 nm) on the microplate reader.
Data from the enzyme immunoassay indirect method were analyzed in the same way as the activity identification, with four gradients of 3 μg/ml, 1.5 μg/ml, 0.75 μg/ml and 0.375 μg/ml for coating; the antibody was diluted from 1000 ng/ml by 2 times to 0.977 ng/ml for loading sample. OD values corresponding to different antibody concentrations at different coating concentrations were obtained. Under the same coating concentration, data were plotted logarithmically with the antibody concentration as the abscissa and the OD value as the ordinate.

Q: Which Kd does the source give for B1 here?
A: Its Kd is 1.53 nM.

Q: B2 was tested. Which Kd did it give?
A: Its Kd is 2.09 nM.

Q: How did the Kd turn out when B3 was run?
A: Its Kd is 3.2 nM.

Q: For B4, which Kd is on record?
A: The Kd was 1.76 nM.
